# In publication PMC4476693, “Role of Subunit Exchange and Electrostatic Interactions on the Chaperone Activity of Mycobacterium leprae HSP18” (PLoS ONE, 2015):
# Assays:
# [1] = molecular target: the molecule itself; experiment: SEC; analytical gel filtration (TSK-GEL G4000SWXL, HPLC), 25°C, 0.5 mg/ml protein in 50 mM phosphate buffer pH 7.5 with 0.05, 0.15 or 0.5 M NaCl; number of subunits printed for 0.5 M NaCl
# [2] = molecular target: the molecule itself; experiment: SEC; analytical gel filtration (TSK-GEL G4000SWXL, HPLC), 25°C, 0.5 mg/ml protein in 50 mM phosphate buffer pH 7.5, no NaCl; column calibrated with molecular weight standards
protein,measurement,setting,value
"Mycobacterium leprae HSP18 (natural protein, UniProt P12809 1-148, looked up, wild-type small heat shock protein HSP18 (18 kDa antigen) of Mycobacterium leprae; Large homo-oligomer: 29 subunits without NaCl, approximately 12 subunits in 0.5 M NaCl (gel filtration); also called 18 kDa antigen) MLMRTDPFRELDRFAEQVLGTSARPAVMPMDAWREGEEFVVEFDLPGIKADSLDIDIERNVVTVRAERPGVDPDREMLAAERPRGVFNRQLVLGENLDTERILASYQEGVLKLSIPVAERAKPRKISVDRGNNGHQTINKTAHEIIDA",stoichiometry N,[1],~12 subunits
same,stoichiometry N,[2],29 subunits
